Source: the RNAGym collection of RNA variant scans (doi:10.7554/elife.80360)

B1: CPEB3 Ribozyme (parent)
chain: GGGGGCCACAGCAGAAGCGUUCACGUCGCGGCCCCUGUCAGAUUCUGGUGAAUCUGCGAAUUCUGCUGU

Variants of: B1
Test: self-cleavage, relative activity (ratio to wild type); higher = more cleavage; co-transcriptional
For C6A U64A, the self-cleavage was 0.307. Work on C6A U64G yielded a self-cleavage of 0.469. Variant C6A U67A has a self-cleavage of 0.782. C6A U67C showed a self-cleavage of 0.883. In the case of C6A U69A, the self-cleavage is reported as 0.884. In the case of C6A U69C, the self-cleavage is reported as 1.03. C6A U69G gave a self-cleavage of 0.838. C6G showed a self-cleavage of 0.388. C6G A8C showed a self-cleavage of 0.873. Work on C6G A8U yielded a self-cleavage of 0.149. Variant C6G A10G has a self-cleavage of 0.459. Work on C6G A10U yielded a self-cleavage of 0.375. Work on C6G A13G yielded a self-cleavage of 0.0914. With C6G A15C the self-cleavage was 0.122. With C6G A16C the self-cleavage was 0.0895. In the case of C6G A16U, the self-cleavage is reported as 0.151. Variant C6G A23C has a self-cleavage of 0.302. Work on C6G A40C yielded a self-cleavage of 0.128. Variant C6G A40G has a self-cleavage of 0.307. With C6G A40U the self-cleavage was 0.0791. C6G A42C gave a self-cleavage of 0.257. Variant C6G A42U has a self-cleavage of 0.154. Work on C6G A51U yielded a self-cleavage of 0.353. C6G A52C showed a self-cleavage of 0.264. C6G A52G showed a self-cleavage of 0.343. In the case of C6G A59C, the self-cleavage is reported as 0.21. C6G A59G gave a self-cleavage of 0.255. With C6G A60G the self-cleavage was 0.16. C6G A60U gave a self-cleavage of 0.137. For C6G C7U, the self-cleavage was 0.176. C6G C9A showed a self-cleavage of 0.651. Work on C6G C9G yielded a self-cleavage of 0.445. Work on C6G C18A yielded a self-cleavage of 0.0602. In the case of C6G C18G, the self-cleavage is reported as 0.062. With C6G C18U the self-cleavage was 0.0723. C6G C24A gave a self-cleavage of 0.0804. With C6G C24G the self-cleavage was 0.085. C6G C24U gave a self-cleavage of 0.193. In the case of C6G C27A, the self-cleavage is reported as 0.0381. Work on C6G C27G yielded a self-cleavage of 0.0563. In the case of C6G C27U, the self-cleavage is reported as 0.0872. Work on C6G C29G yielded a self-cleavage of 0.0434. C6G C29U showed a self-cleavage of 0.0888. For C6G C32A, the self-cleavage was 0.0685. Variant C6G C32G has a self-cleavage of 0.0963. With C6G C32U the self-cleavage was 0.212. In the case of C6G C33A, the self-cleavage is reported as 0.117. C6G C33G showed a self-cleavage of 0.0662. Work on C6G C33U yielded a self-cleavage of 0.262. Variant C6G C34G has a self-cleavage of 0.0582. With C6G C34U the self-cleavage was 0.304. Variant C6G C35A has a self-cleavage of 0.0719. In the case of C6G C35U, the self-cleavage is reported as 0.15. In the case of C6G C39G, the self-cleavage is reported as 0.174. In the case of C6G C45A, the self-cleavage is reported as 0.227. In the case of C6G C45U, the self-cleavage is reported as 0.362. With C6G C54G the self-cleavage was 0.0918. In the case of C6G C54U, the self-cleavage is reported as 0.398. Variant C6G C57A has a self-cleavage of 0.0667. Work on C6G C57U yielded a self-cleavage of 0.189. C6G C63A gave a self-cleavage of 0.185. Variant C6G C63G has a self-cleavage of 0.149. With C6G C63U the self-cleavage was 0.262. C6G C66A gave a self-cleavage of 0.18. For C6G C66U, the self-cleavage was 0.316. Work on C6G G11C yielded a self-cleavage of 0.17. C6G G14A gave a self-cleavage of 0.0825. Work on C6G G14C yielded a self-cleavage of 0.0817. Variant C6G G17A has a self-cleavage of 0.0588. In the case of C6G G17C, the self-cleavage is reported as 0.0719. In the case of C6G G17U, the self-cleavage is reported as 0.0809. C6G G19A showed a self-cleavage of 0.0949. In the case of C6G G19C, the self-cleavage is reported as 0.0471. For C6G G19U, the self-cleavage was 0.0686. With C6G G25C the self-cleavage was 0.0497. C6G G25U showed a self-cleavage of 0.0634. C6G G28U gave a self-cleavage of 0.0241. In the case of C6G G30A, the self-cleavage is reported as 0.172. Variant C6G G30C has a self-cleavage of 0.133. Variant C6G G31A has a self-cleavage of 0.753. C6G G31U gave a self-cleavage of 0.967. In the case of C6G G37A, the self-cleavage is reported as 0.0792. With C6G G37C the self-cleavage was 0.0619. Work on C6G G41A yielded a self-cleavage of 0.122. In the case of C6G G41U, the self-cleavage is reported as 0.252. For C6G G47A, the self-cleavage was 0.377. Work on C6G G47C yielded a self-cleavage of 0.36. For C6G G48C, the self-cleavage was 0.35. Variant C6G G48U has a self-cleavage of 0.391. C6G G50A showed a self-cleavage of 0.42. Work on C6G G50U yielded a self-cleavage of 0.37. With C6G G56A the self-cleavage was 0.204. Work on C6G G56C yielded a self-cleavage of 0.199. Variant C6G G56U has a self-cleavage of 0.152. For C6G G58A, the self-cleavage was 0.2. C6G G58C gave a self-cleavage of 0.294. For C6G G58U, the self-cleavage was 0.402. Variant C6G G65A has a self-cleavage of 0.109. In the case of C6G G65U, the self-cleavage is reported as 0.226. With C6G G68A the self-cleavage was 0.602. With C6G G68C the self-cleavage was 0.478. C6G G68U gave a self-cleavage of 0.509. For C6G U20A, the self-cleavage was 0.0487. In the case of C6G U21C, the self-cleavage is reported as 0.312. In the case of C6G U21G, the self-cleavage is reported as 0.0354. For C6G U26A, the self-cleavage was 0.188. Work on C6G U26G yielded a self-cleavage of 0.224. With C6G U36A the self-cleavage was 0.0334. Variant C6G U36G has a self-cleavage of 0.105. With C6G U38A the self-cleavage was 0.248. In the case of C6G U38C, the self-cleavage is reported as 0.227. C6G U43C showed a self-cleavage of 0.39. C6G U44A gave a self-cleavage of 0.224. For C6G U44C, the self-cleavage was 0.281. C6G U44G gave a self-cleavage of 0.183. In the case of C6G U49A, the self-cleavage is reported as 0.467. In the case of C6G U49C, the self-cleavage is reported as 0.417. In the case of C6G U49G, the self-cleavage is reported as 0.31. For C6G U53A, the self-cleavage was 0.234. C6G U53C showed a self-cleavage of 0.108. With C6G U61C the self-cleavage was 0.0649. C6G U62A showed a self-cleavage of 0.129. For C6G U62G, the self-cleavage was 0.0551. Variant C6G U64A has a self-cleavage of 0.133. C6G U67C showed a self-cleavage of 0.344. With C6G U67G the self-cleavage was 0.374. For C6G U69A, the self-cleavage was 0.589. In the case of C6G U69C, the self-cleavage is reported as 0.797. With C6G U69G the self-cleavage was 0.639. Work on C6U yielded a self-cleavage of 1.01. In the case of C6U A8C, the self-cleavage is reported as 0.941. C6U A8G showed a self-cleavage of 0.813. C6U A8U showed a self-cleavage of 1.01. Variant C6U A10C has a self-cleavage of 0.985. Variant C6U A10U has a self-cleavage of 0.999. In the case of C6U A13C, the self-cleavage is reported as 0.85. In the case of C6U A15C, the self-cleavage is reported as 0.802. C6U A15G gave a self-cleavage of 0.981. With C6U A16C the self-cleavage was 0.12. C6U A16G showed a self-cleavage of 0.986. C6U A16U gave a self-cleavage of 0.841. C6U A23C gave a self-cleavage of 0.953. C6U A23U showed a self-cleavage of 0.999. C6U A40C gave a self-cleavage of 0.506. C6U A40U gave a self-cleavage of 0.835. Variant C6U A42C has a self-cleavage of 0.966. C6U A42U showed a self-cleavage of 0.957. C6U A51C showed a self-cleavage of 0.905. C6U A52C gave a self-cleavage of 0.956. Variant C6U A52U has a self-cleavage of 0.996. With C6U A59C the self-cleavage was 0.586. C6U A59G showed a self-cleavage of 0.961. C6U A59U showed a self-cleavage of 0.733. Work on C6U A60C yielded a self-cleavage of 0.318. Work on C6U A60G yielded a self-cleavage of 0.85. For C6U A60U, the self-cleavage was 0.401. C6U C7A showed a self-cleavage of 0.254. C6U C7G showed a self-cleavage of 0.198. C6U C9A showed a self-cleavage of 1.03. Variant C6U C9G has a self-cleavage of 1.02. C6U C9U showed a self-cleavage of 1.05. C6U C12A showed a self-cleavage of 0.676. C6U C12G gave a self-cleavage of 0.726. Variant C6U C12U has a self-cleavage of 0.987. For C6U C18A, the self-cleavage was 0.119. Work on C6U C22G yielded a self-cleavage of 0.205. C6U C24A showed a self-cleavage of 0.582.
